Source: publication PMC7034832, “Systematic analysis of the binding behaviour of UHRF1 towards different methyl- and carboxylcytosine modification patterns at CpG dyads”

T1: SRA domain of mouse UHRF1 (Mus musculus, UniProt Q8VDF2 419-628)
T1 sequence: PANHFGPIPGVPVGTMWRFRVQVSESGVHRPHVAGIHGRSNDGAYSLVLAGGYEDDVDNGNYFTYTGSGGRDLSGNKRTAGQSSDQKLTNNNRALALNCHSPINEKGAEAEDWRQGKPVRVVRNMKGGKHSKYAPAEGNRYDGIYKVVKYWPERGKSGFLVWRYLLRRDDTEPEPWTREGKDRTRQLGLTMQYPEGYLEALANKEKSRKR

T2: GFP-mUHRF1 (Np95) (Mus musculus, UniProt Q8VDF2 1-782)
T2 sequence: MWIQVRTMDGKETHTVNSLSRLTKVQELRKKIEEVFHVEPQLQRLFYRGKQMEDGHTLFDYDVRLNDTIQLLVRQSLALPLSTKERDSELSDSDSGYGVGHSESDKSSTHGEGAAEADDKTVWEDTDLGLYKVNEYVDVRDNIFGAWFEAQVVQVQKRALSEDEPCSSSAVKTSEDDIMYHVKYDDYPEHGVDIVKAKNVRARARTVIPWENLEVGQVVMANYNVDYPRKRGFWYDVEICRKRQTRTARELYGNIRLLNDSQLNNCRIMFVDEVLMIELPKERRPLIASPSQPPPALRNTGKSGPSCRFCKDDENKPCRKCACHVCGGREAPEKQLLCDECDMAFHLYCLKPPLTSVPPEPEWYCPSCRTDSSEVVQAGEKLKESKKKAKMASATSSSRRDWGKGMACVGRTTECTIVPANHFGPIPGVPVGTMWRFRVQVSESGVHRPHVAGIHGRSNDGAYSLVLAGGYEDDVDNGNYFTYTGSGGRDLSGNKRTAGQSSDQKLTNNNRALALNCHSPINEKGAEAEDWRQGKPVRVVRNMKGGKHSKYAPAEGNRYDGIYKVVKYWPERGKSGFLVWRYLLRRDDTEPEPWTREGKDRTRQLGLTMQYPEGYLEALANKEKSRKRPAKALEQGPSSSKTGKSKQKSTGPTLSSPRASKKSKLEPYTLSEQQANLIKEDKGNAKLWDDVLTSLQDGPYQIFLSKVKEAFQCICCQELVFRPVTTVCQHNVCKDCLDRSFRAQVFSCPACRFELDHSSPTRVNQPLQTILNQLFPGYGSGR

T3: mUHRF2-GFP (Mus musculus, UniProt Q7TMI3 1-803)
T3 sequence: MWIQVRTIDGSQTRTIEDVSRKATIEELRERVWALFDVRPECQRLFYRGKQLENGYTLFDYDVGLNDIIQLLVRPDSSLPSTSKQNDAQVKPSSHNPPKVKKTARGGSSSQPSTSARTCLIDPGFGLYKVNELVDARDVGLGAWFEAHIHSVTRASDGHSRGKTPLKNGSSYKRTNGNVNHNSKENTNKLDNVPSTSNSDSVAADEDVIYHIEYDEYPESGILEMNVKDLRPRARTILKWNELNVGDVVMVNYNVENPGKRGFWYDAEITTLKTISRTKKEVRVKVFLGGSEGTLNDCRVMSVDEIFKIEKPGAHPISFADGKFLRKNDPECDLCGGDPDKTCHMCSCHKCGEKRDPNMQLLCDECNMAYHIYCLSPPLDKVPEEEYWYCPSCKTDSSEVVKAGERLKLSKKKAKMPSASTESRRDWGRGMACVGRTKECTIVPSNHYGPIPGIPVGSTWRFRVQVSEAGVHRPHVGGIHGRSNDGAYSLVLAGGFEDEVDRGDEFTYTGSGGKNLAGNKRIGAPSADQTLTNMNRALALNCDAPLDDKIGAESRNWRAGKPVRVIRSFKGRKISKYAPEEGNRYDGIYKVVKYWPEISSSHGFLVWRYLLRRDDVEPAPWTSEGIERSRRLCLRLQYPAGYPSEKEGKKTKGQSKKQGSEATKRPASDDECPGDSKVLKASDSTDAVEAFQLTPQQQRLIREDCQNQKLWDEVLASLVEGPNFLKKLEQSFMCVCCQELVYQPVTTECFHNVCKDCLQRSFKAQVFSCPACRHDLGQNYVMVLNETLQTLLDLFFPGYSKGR

B1: 42 bp C-C' (dsDNA)
DNA 1: GGATGATGACTCTTCTGGTCCGGATGGTAGTTAAGTGTTGAG
DNA 2: CTCAACACTTAACTACCATCCGGACCAGAAGAGTCATCATCC
modifications: none
B2: 42 bp caC-C' (dsDNA)
DNA 1: B1 DNA 1
DNA 2: B1 DNA 2
modifications: 5-carboxylcytosine at central CpG, one strand
B3: 42 bp caC-caC' (dsDNA)
DNA 1: B1 DNA 1
DNA 2: B1 DNA 2
modifications: 5-carboxylcytosine at central CpG, both strands
B4: 42 bp mC-caC' (dsDNA)
DNA 1: B1 DNA 1
DNA 2: B1 DNA 2
modifications: 5-methylcytosine on one strand, 5-carboxylcytosine on the other at central CpG
B5: 42 bp mC-C' (dsDNA)
DNA 1: B1 DNA 1
DNA 2: B1 DNA 2
modifications: 5-methylcytosine at central CpG, one strand

Tests used:
[1] = molecular target: T1, SRA domain of mouse UHRF1; assay: MST; MST: PBS-T (0.05% Tween-20), 50 nM labelled SRA, 20 min, room temperature; EMSA: 20 mM Tris-HCl pH 7.5, 150 mM NaCl, 0.5 mM EDTA, 1 mM DTT, 100 ng/ul BSA, 250 nM of each DNA, 4.69-300 nM protein, 30 min on ice, 6% PAGE 0.5x TBE; melting: 50 mM Tris-HCl pH 7.5, 0.5 mM b-ME, 10 mM EDTA; conditions: protein: recombinant, tags: His6, NT-647 (RED-tris-NTA) label in MST
[2] = molecular target: T2, GFP-mUHRF1 (Np95); assay: EMSA, two-colour competition; ATTO647N C-C' DNA as competitor; MST: PBS-T (0.05% Tween-20), 50 nM labelled SRA, 20 min, room temperature; EMSA: 20 mM Tris-HCl pH 7.5, 150 mM NaCl, 0.5 mM EDTA, 1 mM DTT, 100 ng/ul BSA, 250 nM of each DNA, 4.69-300 nM protein, 30 min on ice, 6% PAGE 0.5x TBE; melting: 50 mM Tris-HCl pH 7.5, 0.5 mM b-ME, 10 mM EDTA; conditions: protein: recombinant; tags: GFP (N-terminal by name); label: ATTO550 (EMSA)
[3] = molecular target: T3, mUHRF2-GFP; assay: as above; conditions: protein: recombinant; tags: GFP (C-terminal by name); label: ATTO550 (EMSA)

Binder | Kd ([1]; label: ATTO550 (EMSA)) | binding signal [2] | other results
B1 |  |  | Kd ([1]; label: ATTO550 or ATTO647N (EMSA)): 1100 ± 150 nM
B2 | 1100 ± 290 nM |  | 
B3 | 230 ± 50 nM | ~2 fold vs C-C' | binding signal [3]: ~2 fold vs C-C'
B4 |  |  | Kd [1]: 390 ± 110 nM
B5 | 750 ± 110 nM | ~1.5 fold vs C-C' | 
